{"source": "patent US7361741", "molecular_target": "enzyme recognising antibody fragments"}
{"protein": "Human Gastric Lipase (protein) LFGKLHPGSPEVTMNISQMITYWGYPNEEYEVVTEDGYILEVNRIPYGKKNSGNTGQRPVVFLQHGLLASATNWISNLPNNSLAFILADAGYDVWLGNSRGNTWARRNLYYSPDSVEFWAFSFDEMAKYDLPATIDFIVKKTGQKQLHYVGHSQGTTIGFIAFSTNPSLAKRIKTFYALAPVATVKYTKSLINKLRFVPQSLFKFIFGDKIFYPHNFFDQFLATEVCSREMLNLLCSNALFIICGFDSKNFNTSRLDVYLSHNPAGTSVQNMFHWTQAVKSGKFQAYDWGSPVQNRMHYDQSQPPYYNVTAMNVPIAVWNGGKDLLADPQDVGLLLPKLPNLIYHKEIPFYNHLDFIWAMDAPQEVYNDIVSMISEDKK", "values": [{"measurement": "enzyme activity assay (DGGR substrate)", "value": "Approximately 30 to 60% of the enzyme recognising antibody fragments showed to inhibit the enzyme"}]}
